According to the RNAGym collection of RNA variant scans (doi:10.1073/pnas.2313332121):

B1: TPR t1 (parent)
chain: GACCAAUCUGCCCUCAGAGCUCGAGAACAUCUUCGGAUGCAGAGGAGGCAGGCUUCGGUGGCGCGAUAGCGCCAACGUCCUCAACCUCCAAUGCAUCCCACCACAUGAUGAUGCCUGAAGAGCCUUGGUUUUUUG

Variants of: B1
Assay: polymerase ribozyme fitness, log enrichment relative to wild type (log ratio); higher = more active; in vitro selection for triplet polymerase activity
Outline: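 Libraries of mutants in each subunit of a heterodimeric triplet polymerase ribozyme were generated by PCR and transcribed. In triplicate, each went through one in vitro selection round: annealing with biotinylated primer, partner subunit and triplets; frozen incubation at −7 °C; gel excision of extended constructs; streptavidin-bead capture; RT-PCR. Fitness, taken from Illumina sequencing of input and output libraries, is the logarithm of a genotype's enrichment over wild-type enrichment, averaged across replicates with inverse-variance weights. The logarithm is base 2, and genotypes needed ≥10 input reads and ≥1 read per output to be kept.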
For G35A G45A, the “polymerase ribozyme fitness (log ratio)” value was -4.16.
In the case of G36C C40A C101A C104U A121U, the “polymerase ribozyme fitness (log ratio)” value is reported as -1.4.
In the case of G36A C115U, the “polymerase ribozyme fitness (log ratio)” value is reported as -1.88.
With G36C G44U A90C C102U the “polymerase ribozyme fitness (log ratio)” value was -5.65.
With G36U A74G A105U the “polymerase ribozyme fitness (log ratio)” value was -3.55.
For G35C G39U C64U, the “polymerase ribozyme fitness (log ratio)” value was -7.51.
In the case of G35A A66G, the “polymerase ribozyme fitness (log ratio)” value is reported as -6.38.
For G36U A83U, the “polymerase ribozyme fitness (log ratio)” value was -1.49.
For G35U G65U A121G, the “polymerase ribozyme fitness (log ratio)” value was -5.82.
With C34U U109C C114A the “polymerase ribozyme fitness (log ratio)” value was -6.96.
For G35A G77U, the “polymerase ribozyme fitness (log ratio)” value was -3.89.
In the case of G35U G45U G61U C97A C123G, the “polymerase ribozyme fitness (log ratio)” value is reported as -5.69.
With C34U C114G the “polymerase ribozyme fitness (log ratio)” value was -6.1.
In the case of G35A C85U C94A, the “polymerase ribozyme fitness (log ratio)” value is reported as -6.51.
For G35C U106C, the “polymerase ribozyme fitness (log ratio)” value was -4.83.
For C34U G113A C124A, the “polymerase ribozyme fitness (log ratio)” value was -5.17.
In the case of G36U A105C G135U, the “polymerase ribozyme fitness (log ratio)” value is reported as -4.66.
In the case of G35A U55C C115U, the “polymerase ribozyme fitness (log ratio)” value is reported as -5.27.
With G36A A46U G57U C104U the “polymerase ribozyme fitness (log ratio)” value was -1.52.
In the case of G35U G61U C94U C124U, the “polymerase ribozyme fitness (log ratio)” value is reported as -4.83.
In the case of G36A C97A, the “polymerase ribozyme fitness (log ratio)” value is reported as -3.86.
For G36C C49U, the “polymerase ribozyme fitness (log ratio)” value was -1.18.
With C34U U59A C94U the “polymerase ribozyme fitness (log ratio)” value was -5.57.
In the case of G35U G61A C85A C114G U131G, the “polymerase ribozyme fitness (log ratio)” value is reported as -6.32.
With G35C G47A C56U A111G the “polymerase ribozyme fitness (log ratio)” value was -5.32.
For G36C C82G U126C, the “polymerase ribozyme fitness (log ratio)” value was -2.57.
In the case of G35A, the “polymerase ribozyme fitness (log ratio)” value is reported as -3.65.
For G35C, the “polymerase ribozyme fitness (log ratio)” value was -4.55.
With G35U the “polymerase ribozyme fitness (log ratio)” value was -4.66.
In the case of G35C A111C, the “polymerase ribozyme fitness (log ratio)” value is reported as -4.47.
For G36A G110A, the “polymerase ribozyme fitness (log ratio)” value was -2.64.
In the case of G36C G45C A111C G122A, the “polymerase ribozyme fitness (log ratio)” value is reported as -2.97.
For G36C G113C, the “polymerase ribozyme fitness (log ratio)” value was -2.78.
For G36A C53U U126A U129G U133G, the “polymerase ribozyme fitness (log ratio)” value was -4.06.
For G36U C72G C102U A119U, the “polymerase ribozyme fitness (log ratio)” value was -4.07.
For G35U G63U C104G, the “polymerase ribozyme fitness (log ratio)” value was -7.12.
In the case of G36A G42U C88A G113U, the “polymerase ribozyme fitness (log ratio)” value is reported as -3.82.
In the case of G35C C115U A118U, the “polymerase ribozyme fitness (log ratio)” value is reported as -7.09.
For G35A C124G, the “polymerase ribozyme fitness (log ratio)” value was -2.
In the case of G35A C70U C79G C115A U133A, the “polymerase ribozyme fitness (log ratio)” value is reported as -7.56.
In the case of G35U A74G, the “polymerase ribozyme fitness (log ratio)” value is reported as -5.03.
In the case of G35U C62U, the “polymerase ribozyme fitness (log ratio)” value is reported as -3.74.
For C34U G58A C97U C123G, the “polymerase ribozyme fitness (log ratio)” value was -5.6.
For G35A G48C, the “polymerase ribozyme fitness (log ratio)” value was -4.48.
In the case of G35U A90C, the “polymerase ribozyme fitness (log ratio)” value is reported as -6.98.
For G35C G61A A121U U126A, the “polymerase ribozyme fitness (log ratio)” value was -3.79.
For G35A C102A, the “polymerase ribozyme fitness (log ratio)” value was -4.61.
With G36A C64U the “polymerase ribozyme fitness (log ratio)” value was -0.622.
In the case of G36A G60A C85U C124G, the “polymerase ribozyme fitness (log ratio)” value is reported as 0.468.
In the case of G36C G60U, the “polymerase ribozyme fitness (log ratio)” value is reported as -0.402.
In the case of G35A C56U C72U G113A U133A, the “polymerase ribozyme fitness (log ratio)” value is reported as -5.8.
For G36C C88U C89A, the “polymerase ribozyme fitness (log ratio)” value was -3.3.
For G35U G48C A121C, the “polymerase ribozyme fitness (log ratio)” value was -3.96.
With G36A G63U C85G the “polymerase ribozyme fitness (log ratio)” value was -2.03.
In the case of G35A U130G, the “polymerase ribozyme fitness (log ratio)” value is reported as -5.13.
For G36A A41C A43U C88A A105C C123G, the “polymerase ribozyme fitness (log ratio)” value was -5.88.
With G35C G36A C40A C94U C114U the “polymerase ribozyme fitness (log ratio)” value was -6.41.
With G35U U59A the “polymerase ribozyme fitness (log ratio)” value was -6.05.
In the case of G35U G117A, the “polymerase ribozyme fitness (log ratio)” value is reported as -5.15.
For G35A A74U C101U, the “polymerase ribozyme fitness (log ratio)” value was -4.34.
In the case of G36A U59G G69A C94U G113A, the “polymerase ribozyme fitness (log ratio)” value is reported as -4.53.
For G35A C73A U78G A90G C115G A121C, the “polymerase ribozyme fitness (log ratio)” value was -4.57.
For G36U C72U, the “polymerase ribozyme fitness (log ratio)” value was -1.51.
In the case of G36C G47U G110C, the “polymerase ribozyme fitness (log ratio)” value is reported as -5.66.
For G36U C53G C56A, the “polymerase ribozyme fitness (log ratio)” value was -1.45.
For G36A U106A, the “polymerase ribozyme fitness (log ratio)” value was -0.912.
For G36U C56G C123G, the “polymerase ribozyme fitness (log ratio)” value was -5.15.
For G36C U112G G117A, the “polymerase ribozyme fitness (log ratio)” value was -3.75.
For G36A G71U C76U U125A, the “polymerase ribozyme fitness (log ratio)” value was -4.4.
In the case of G35U G120U, the “polymerase ribozyme fitness (log ratio)” value is reported as -5.06.
In the case of G35U C101U, the “polymerase ribozyme fitness (log ratio)” value is reported as -6.26.
With G35U C101A the “polymerase ribozyme fitness (log ratio)” value was -4.48.
In the case of G36U C73U C114G C115G A119C G127U, the “polymerase ribozyme fitness (log ratio)” value is reported as -6.83.
In the case of G36U C82G U92C, the “polymerase ribozyme fitness (log ratio)” value is reported as -2.13.
For G35A C101G, the “polymerase ribozyme fitness (log ratio)” value was -5.52.
With G36U C89A the “polymerase ribozyme fitness (log ratio)” value was -2.46.
For G35U C123G, the “polymerase ribozyme fitness (log ratio)” value was -2.32.
In the case of G35A G61C A111C, the “polymerase ribozyme fitness (log ratio)” value is reported as -5.93.
For G36A G42A U54G, the “polymerase ribozyme fitness (log ratio)” value was -3.13.
For G36C C64U G113U, the “polymerase ribozyme fitness (log ratio)” value was -3.55.
In the case of G36U C73A C124U, the “polymerase ribozyme fitness (log ratio)” value is reported as 0.315.
With G35A C72U A75U G77C C97U G120A U125A the “polymerase ribozyme fitness (log ratio)” value was -6.29.
For G35C C76G, the “polymerase ribozyme fitness (log ratio)” value was -4.89.
In the case of G36A G42A A43C C53U, the “polymerase ribozyme fitness (log ratio)” value is reported as -3.85.
